Experimental data reported in IntAct's records for PubMed 19914239.

B1: Folliculin (Rattus norvegicus (Rat)), Q76JQ2 (parent)
chain: MNAIVALCHFCELHGPRTLFCTEVLHAPLPQGAGSGDSPGQVEQAEEEEGGIQMSSRVRAHSPAEGASTDSSSPGPKKSDMCEGCRSLAVGHPGYISHDKETSIKYVSHQHPNHPQLFSIVRQACVRSLSCEVCPGREGPIFFGDEQHGFVFSHTFFIKDSLARGFQRWYSIIAIMMDRIYLINSWPFLLGKIRGIISELQGKALKVFEAEQFGCPQRAQRMNTAFTPFLHQRNGNAARSLTSLTSDDNLWACLHTSFAWLLKACGSRLTEKLLEGAPTEDTLVQMEKLADLEEESESWDNSEAEEEEKAPATAEGAEGRELASCPTESSFLSACGSWQPPKLSVFKSLRHMRQVLGAPSFRMLAWHVLMGNQVIWKSRDVNLVHSAFEVLRTMLPVGCVRIIPYSSQYEEAYRCNFLGLSPPVPIPAHVLASEFVVVVEVHTATRSNPHPAGCEDDQSLSKYEFVVTSGSPVAADRVGPTILNKMEAALTNQNLSVDVVDQCLVCLKEEWMNKVKVLFKFTKVDSRPKEDTQKLLSVLGASEEDNVKLLKFWMTGLSKTYKSHLMSTVRSPTAAESRN

Variants of: B1
Settings: with aapk1_rat Prkaa1, P54645
Sequence of aapk1_rat Prkaa1, P54645 (P54645 whole entry): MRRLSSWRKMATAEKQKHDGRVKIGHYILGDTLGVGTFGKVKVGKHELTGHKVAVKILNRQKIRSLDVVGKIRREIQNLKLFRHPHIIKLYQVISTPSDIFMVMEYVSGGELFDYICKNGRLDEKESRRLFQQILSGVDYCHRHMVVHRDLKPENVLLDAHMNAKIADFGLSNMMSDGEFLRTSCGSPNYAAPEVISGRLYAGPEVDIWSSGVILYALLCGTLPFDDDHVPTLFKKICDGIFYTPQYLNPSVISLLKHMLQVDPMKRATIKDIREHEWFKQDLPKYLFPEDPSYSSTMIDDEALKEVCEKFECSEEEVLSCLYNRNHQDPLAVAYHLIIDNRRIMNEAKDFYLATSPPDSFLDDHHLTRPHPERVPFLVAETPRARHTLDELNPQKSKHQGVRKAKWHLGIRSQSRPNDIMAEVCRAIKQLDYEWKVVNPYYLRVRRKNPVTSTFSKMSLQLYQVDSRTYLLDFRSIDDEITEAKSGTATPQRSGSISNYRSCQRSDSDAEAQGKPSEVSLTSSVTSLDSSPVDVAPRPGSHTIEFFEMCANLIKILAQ

| Variant | effect of a mutation on the interaction |
| --- | --- |
| S62D | increasing interaction |

Variants of: B1
Settings: with aapk1_rat Prkaa1, P54645
Remark: another data set of the same source

| Variant | effect of a mutation on the interaction |
| --- | --- |
| S62A | decreasing interaction |
